Assay results from US20250243290A1.
“And” between values parts separate entries of the source, which are not always exact repeats. Equal values may be shown once. Read-outs that look alike come from different tables or passages of the source.

Legend:
Test in all cases: peptide-array ELISA [Con't]
[1] = target: VPE2LS2…2…
[2] = target: CQI2…2…
WVPE2…2T2 = target: WVPE2…2T2
RLCAPLRK2…2APGTFSN = target: RLCAPLRK2…2APGTFSN
NWVPE2…2T = target: NWVPE2…2T
…2RPGW = target: …2RPGW
CAPLRK2…2APGTFSN = target: CAPLRK2…2APGTFSN
…2RPG = target: …2RPG
…2RP = target: …2RP
Sequence of …2RP (peptide, as listed by the source): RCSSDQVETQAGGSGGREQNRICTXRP

WVPE2…2 = target: WVPE2…2
[3] = target: SKQEGCRL2…
Sequence of SKQEGCRL2… (peptide, as listed by the source): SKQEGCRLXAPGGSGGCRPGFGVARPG

E2LS2…2RPG = target: E2LS2…2RPG
LS2…2RPGW = target: LS2…2RPGW
[4] = target: TSDVV2…
PE2LS2…2RPGW = target: PE2LS2…2RPGW
[5] = target: 2…2…
CG2RL2APLRK2…2TSTSPTRC = target: CG2RL2APLRK2…2TSTSPTRC
[6] = target: WY2…
Sequence of WY2… (peptide, as listed by the source): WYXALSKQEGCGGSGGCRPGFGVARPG

[7] = target: WY2…2…
NRI2…2RL = target: NRI2…2RL
WVPE2…2T = target: WVPE2…2T
[8] = target: …2…
2LS2…2TREQNRIC = target: 2LS2…2TREQNRIC
LWNWVPE2…2T2 = target: LWNWVPE2…2T2
VPE2LS2…2RPG = target: VPE2LS2…2RPG
VPE2LSCGSR2…2T = target: VPE2LSCGSR2…2T
PE2LSCGSR2…2 = target: PE2LSCGSR2…2
2LS2…2RP = target: 2LS2…2RP
WNWVPE2…2T = target: WNWVPE2…2T
[9] = target: WNWVPE2…
Sequence of WNWVPE2… (peptide, as listed by the source): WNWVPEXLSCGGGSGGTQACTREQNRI

E2LS2…2TREQNRIC = target: E2LS2…2TREQNRIC
[10] = target: 2…
Sequence of 2… (peptide, as listed by the source): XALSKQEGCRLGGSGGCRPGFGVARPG

[11] = target: KQEGCRL2…
Sequence of KQEGCRL2… (peptide, as listed by the source): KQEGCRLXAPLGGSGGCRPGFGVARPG

…2…2RPG = target: …2…2RPG
[12] = target: EGCRL2…
Sequence of EGCRL2… (peptide, as listed by the source): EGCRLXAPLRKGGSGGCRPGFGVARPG

…2…2R = target: …2…2R
[13] = target: PE2LS2…2…
CAPLRK2…2RLC = target: CAPLRK2…2RLC
…2RLCQA2TREQNRI2T2RPC = target: …2RLCQA2TREQNRI2T2RPC
[14] = target: CGWY2ALSKQEG2RL2CNASMDAV2TSTSPTRC
…2TSTSPTRC = target: …2TSTSPTRC
Sequence of …2TSTSPTRC (peptide, as listed by the source): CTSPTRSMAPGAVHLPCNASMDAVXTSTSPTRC

[15] = target: CGSR2…
Sequence of CGSR2… (peptide, as listed by the source): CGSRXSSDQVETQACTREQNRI

E2LSCGSR2…2T2 = target: E2LSCGSR2…2T2
ALSKQEG2…2APGTFSN = target: ALSKQEG2…2APGTFSN
QNRI2…2RL = target: QNRI2…2RL
CLSKQEG2RL2…22SK2C = target: CLSKQEG2RL2…22SK2C
[16] = target: …2…; remark: listed apart in the source
[17] = target: …2KP2…2…
[18] = target: EGCRL2…2…
CDQVETQA2…2TREQNRI2T2RPC = target: CDQVETQA2…2TREQNRI2T2RPC
[19] = target: SCGSR2…
Sequence of SCGSR2… (peptide, as listed by the source): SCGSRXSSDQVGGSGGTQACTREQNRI

…2SK2SPGQ = target: …2SK2SPGQ
[20] = target: …2KCAPLRK2…
…2…2TSTSPTRC = target: …2…2TSTSPTRC

Sequence of …2RPGW (peptide, as listed by the source): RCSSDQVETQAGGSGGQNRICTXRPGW

agonistic TNFR2 antibody MR2-1
Raw luminescence data [1]: 301 | Raw luminescence data [2]: 286 | Raw luminescence data (WVPE2…2T2): 287 | Raw luminescence data (RLCAPLRK2…2APGTFSN): 320 | Raw luminescence data (NWVPE2…2T): 283 | Raw luminescence data (…2RPGW): 308 | Raw luminescence data (CAPLRK2…2APGTFSN): 293 | Raw luminescence data (…2RPG): 341 and 293 | Raw luminescence data (…2RP): 324 | Raw luminescence data (WVPE2…2): 317 | Raw luminescence data [3]: 288 | Raw luminescence data (E2LS2…2RPG): 314 | Raw luminescence data (LS2…2RPGW): 299 | Raw luminescence data [4]: 323 | Raw luminescence data (PE2LS2…2RPGW): 305 | Raw luminescence data [5]: 299 | Raw luminescence data (CG2RL2APLRK2…2TSTSPTRC): 287 | Raw luminescence data [6]: 344 | Raw luminescence data [7]: 287 | Raw luminescence data (NRI2…2RL): 296 | Raw luminescence data (WVPE2…2T): 312 | Raw luminescence data [8]: 342 and 337 | Raw luminescence data (2LS2…2TREQNRIC): 288 | Raw luminescence data (LWNWVPE2…2T2): 353 | Raw luminescence data (VPE2LS2…2RPG): 295 | Raw luminescence data (VPE2LSCGSR2…2T): 292 | Raw luminescence data (PE2LSCGSR2…2): 312 | Raw luminescence data (2LS2…2RP): 362 | Raw luminescence data (WNWVPE2…2T): 323 | Raw luminescence data [9]: 291 | Raw luminescence data (E2LS2…2TREQNRIC): 299 | Raw luminescence data [10]: 351 | Raw luminescence data [11]: 352 | Raw luminescence data (…2…2RPG): 304 | Raw luminescence data [12]: 359 | Raw luminescence data (…2…2R): 299 | Raw luminescence data [13]: 317 | Raw luminescence data (CAPLRK2…2RLC): 227 | Raw luminescence data (…2RLCQA2TREQNRI2T2RPC): 150 | Raw luminescence data [14]: 156 | Raw luminescence data (…2TSTSPTRC): 154 | Raw luminescence data [15]: 153 | Raw luminescence data (E2LSCGSR2…2T2): 153 | Raw luminescence data (ALSKQEG2…2APGTFSN): 151 | Raw luminescence data (QNRI2…2RL): 151 | Raw luminescence data (CLSKQEG2RL2…22SK2C): 156 | Raw luminescence data [16]: 155 | Raw luminescence data [17]: 150 | Raw luminescence data [18]: 155 | Raw luminescence data (CDQVETQA2…2TREQNRI2T2RPC): 154 | Raw luminescence data [19]: 155 | Raw luminescence data (…2SK2SPGQ): 156 and 153 | Raw luminescence data [20]: 151 | Raw luminescence data (…2…2TSTSPTRC): 156
